The results in this text go back to the DeepSol protein solubility set.

A short description of this series: soluble on expression in E. coli; label from the status in PepcDB or PDB records.
Regarding “MGSSHHHHHHSSENLYFQGHMLANNNKRSKLSTVPSSRPIRVGFVGLTSGKSWVAKTHFLAIQQLSSQFQIVALYNPTLKSSLQTIEQLQLKHATGFDSLESFAQYKDIDMIVVSVKVPEHYEVVKNILEHSSQNLNLRYLYVEWALAASVQQAEELYSISQQRANLQTIICLQGRKSPYIVRAKELISEGCIGDINSIEISGNGGWYGYERPMRSPEYLYDIESGVNLISNSFGHTIDVLQYITGSYFQKINAMISNNIPTQFLLDENGKRTKETISKTCPDHLLFQGILENGKVPVSCSFKGGTPVKKLTKNLVIDIHGTKGDLKIEGDAGFVEISNLVLYFYGIKNGNGSSNGTDNNGAAAIKDKEKVTKSPSPSTGTSEEEQTMEVFHLRNYNSVVGNILRIYESIADYHFLGKPESKSSRGPDDLFASTKFDKQGFRFEGFPTFKDAIILHRLIDAVFRSDKEEKTLDVSKIMI”, the “soluble on expression in E. coli” value is “soluble”.
Next, “MGSDKIHHHHHHMKNKVGIMYDNISGNTGDVAIGISLRKIMKELKVDFDEILLNNIDVLKYNTVIIGGGHLLRENSDFFYDKFKLRGPNILNSVGVVGNPNDLQYLEEYKYVTFRSEGDRKKAGYLNKKSSVVPCTTMLLDDLQDFPIHIKRPAIGVHLIPNIFSKEEEGLFVKWASKLPYTIYFIPITHYNYDYIYMSKLSQRISNSRVLPIMKPLEIFTFIGKLDYLITCSLHGSIFSYIHNVPFILMEQEKSRFFLEDRGLQGYLFSNLKEIIGLTEKVINNPLDYSNLIVKDKKILEEHVENIKQIVPNNSTYILSKECTESDEITQLNLQNGILQINLSKLTYELEAYKKEIKGINFRLKDEESKHMYYKKELKKIYRSRGWKALKKFYSLKDFISKKINGA”: “not soluble”; “MRCLALDIGGTKIAAAIVKNGEIEQRQQIHTPRENVVEGMHQALGKLLADYEGQFDYVAVASTGIINNGILSALNPKNLGGLAEFPLKASIAKHTDKPIGLLNDAQAATYAEYQLQNSEQVSNFVFITVSTGVGGGIVLNQILQTGSRGIAGHIGHTLADPNGAICGCGRRGCVEAIASGRAIEAVSSQWEEPCDPKEVFERFRKNDEKATALVERSAKAIANLIADLVISLDIQKIAIGGSVGLAEGYLSLVEKYLQDFPSIYCCEIETAKFGQDAGLIGAAYWVKDVLLDKPEGTIYGLEHHHHHH”: “soluble”; “ALPTIHVVTPTYSRPVQKAELTRMANTLLHVPNLHWLVVEDAPRRTPLTARLLRDTGLNYTHLHVETPRNYKLRGDARDPRIPRGTMQRNLALRWLRETFPRNSSQPGVVYFADDDNTYSLELFEEMRSTRRVSVWPVAFVGGLRYEAPRVNGAGKVVRWKTVFDPHRPFAIDMAGFAVNLRLILQRSQAYFKLRGVKGGYQESSLLRELVTLNDLEPKAANCTKILVWHTRTEKPVLVNEGKKGFTDPSVEI”: “soluble”.
For the sequence “MGLMKFQLFIQPKLDVLQGNIVEYEILLRDDSAVPRFPLSELEAVLADEELYLAFSEWFSEAFLDVLKKYPNDRFAINIAPQQLFYIETLHWLDKLKSESHRITVEMTEDIFDVPGHKRHLNANDKNAFILNKIKVIHGLGYHIAIDDVSCGLNSLERVMSYLPYIIEIKFSLIHFKNIPLEDLLLFIKAWANFAQKNKLDFVVEGIETKETMTLLESHGVSIFQGYLVNKPFPV”, the “soluble on expression in E. coli” value was “soluble”.
Next, “MSEQLNADRPKTRRKEPAGRGSASEQKILAAAKELFLADRYDGVNLERIAARAGVSRQTVYNRFGSKETVFREMVRHHWSAFAGPGRDIAECGPDASAEEVLRGFAQSLQRFATETDQIRFAQLVVTESARLPWIADEFYRLGKGPVVVTFADCLDSLVRRGLLRCPDTHLAARQFTGLVQEFLVWPRVMAFEEEVAGQAPPEVVIEEAVLTFLARYAPAADGPGQSV”: “not soluble”.
The same measure for “MSLRLKTILLTTMATGSFLCEPVAAMCIEPPATPDMGWFLKKKKKSNPQDSIKVKNEYEKLTGSDSVVRRGMFNVYQKKNDYYFEIPSTLLERDMLVVNKLQRVPAELNEAGVNRGTNYENQMIRFELDKSANKLLIRQSRPLPISPSEDAISQSVKDNYISPLIAGFKVEAYNNDSTSILIKVNDIYDGTETSINNVFTNINLGTSAIKNLSRILSIKSFDNNVVATSELTTRVTEGTTTIYVTVEVSSSILLLPEVPMTGRLDNPRVGYFTNPLTNFSDGQQRVNKKQFITRWRLEPRPEDRAAYLRGELVEPRKPIVFYIENSTPYRWRKYIKQGIEDWQVAFERAGFKNAIIAKDITEDMEVDMDDVNYSVLTYAASTKANAMGPSILDPRSGEILEADIMWWHNVLSMLQEWITVQTGVVRPEARGVALPDSLMGDAMRFVACHEVGHSLGLRHNMMGSWAFPTDSLRSKTFTDRMNSTSSSIMDYARFNYVAQPGDGIKALSPHIGPYDMFAIEYGYRWYGKQTPEEEKELLQDFLAKHTDRLYKYSEAQDEGHHHHHH”: “soluble”; for “MAHHHHHHMPGIKIEEVISTTKRQRVAAHSHVKGLGLDADGSAKPSADGFVGQVKAREAAGIVVELTRSKKMAGRALLFAGPPGTGKTALALGIAKELGPKVPFCPMVGSEVYSAEVKKTEVLMENFRRAIGLRIKEQKEVYEGEVTELRAEETDNPLGGYGKSIAHVIVTLKSVKGSKQLKLDAAIYESLEKEKVSVGDVIYIEASTGAVKRVGRSDAYIGDHDLEADEYVPLPKGDVHKKKEIIQDVTLHDLDSANAKPNQGQDALSIVNSLMKQKKTEITEKLRHEINKVVNKYIDQGVAELVPGVLFIDEVHMLDIECFTFLNKALESTLAPVVIFATNRGSCRIRGTDIRSPHGIPTDLLDRLLIVRTTNYSIEEIVSIVDIRSQVEGVKVSDASLELLGQIGERTSLRYVVQLLTPALIIAETNGRTVIEAEDVMLVDGLFKDAKASAQLLHEHADEYVYQ”: “not soluble”.
With “MAGFFNKLTGFFTISRQHNPPFEAASKSRRMGGFDPAKKHINKAIEECGDTIVARSRWLYDNESLYGSATEEWVSAAVSDGIKPYPRIEGFQEEKKKLLDLWWQWVDEADYDEDANFYGLQATIAREVFLTGECFVRLHYVDLYGRSGVPFQLQIYPTEMLDLTYNGPAETEGNYIRMGIEFNASGKRVAYHFWEHHPYDDCPANRAFKSQDRIRVPAEMVLHIKERRIAGQLRGSPKITRSMTKIFQLESYDDAELDRKRTAALFAVFITGKESHDAALEENREQTRLPKKPEEAADVDKIYPGSVNMVDGEKQITFSTPVEVGGSYEAFQFRNILKICSALNMPYAVVTGDVTRGNFSNVRTSIIQFRRHVKQWREHIIAFQFNRIVWERFVEMAVLSGRVHLPGWEENPLPWLQCESFAPPLEMIDPNKDISAEKEEIRAGLKTRRMALAERGFDIDSIHAELEEEHTDARARGLSFDTDMAASSGDNQIIDTTDSDPSETYESNQGSEAHKNGE”, the “soluble on expression in E. coli” value is on record as “not soluble”.
The same measure for “MTLGELREEVWNALARYDLALHPTPPHGHHPNFLGARRAAERLLKTPEFQGARRVLAGMDAVLKPLREEALRQGKELLLPHPDRPGEFLLLRDVDPRKLKRVREAYRFGVRVALEEATPDLVLIGAVAVDEEGGWVGKGYGFPQSWLRVEAPFATLAHPVMVYPRLPVPPERRVDLIATPQRLLRLG”: “soluble”; for “MGSDKIHHHHHHMATFTRKAIMQTFLHILKNKPLDRITVKDICEQCEINRNTFYYYFKDIYDVLEAIFEDEVRLVMDEAKEGVTFHDAYARVAALILNNREAIMHIYASENGRVLRTYLDAVVTQVVRRFVLEKAEGYSLDDSDIAFITAFYSNGIVGSTIKWIERGSMMSRLPENITANGVGLSKSQYNRDIVKRIGDSFDATIYDMIECCL”: “not soluble”.
For “MNLDTPLADGLERAKRFEQGLQQVVLGQERPIRLLTLAVFARGHALLEGGVGVGKTTLLRAVARGIGGDYERIEGTIDLMPNDLVYYTYLDEQGRPGVAPGPLLKHGEQLSIFFFNEINRARPQVHSLLLRVMAERSVSAFNREYRFPYLQVFADRNRVEKEETFELPAAARDRFMLEIAIEPPADPAHIDQILFDPRFYDPDRLVASAPADTLSFRELNGIAEALQGGIHVSARLRSYVQDLWRATRRPEDFGIALHEADSGDMIEAGSSPRGMSYLVRLARVQAWLSGRDRVEPEDVQYVFAPAVGHRIFLKPVYEYRRAELIPELVGKLIRRIAAPLEHHHHHH”, the “soluble on expression in E. coli” value is listed as “not soluble”.
Next, “MSLNMTSKETKEGLAGYFSSDAAKMQSNNVSPVANNPFVQSTDKLDTRDFKITEVERSHYAIAQKLRQMLMADATPQSASGISADDVGVQLRVNSDIMYAPGSAELAPEGAKVLDDVIRILKEYNLYLVVRGHTDSGEPRNSIYPSNWELSGARAAAAVRYIITHGEIKPTRLRSIAYADTRPLEPNTSPDSRAKNRRVEFYFHRPEVMSYSVVYEGHHHHHH”: “soluble”.
Take “MSLQSSEAIDTEPKTISPVPEGRPVLVLDLDETCIYSTPAKPEKQQNFPIRIKRRNVFIQVRPGMQECIRRLSEKYEIFFYTASTKIYANKVIDAIAPFVDNEHRFFVSRDQLKDLTLINRPLGKVLLLDNSACSAQKNNLLLIKTWIGDPNDNAFTNEVMPLLDNLVKESDIPSACRNLVSSRRYPSLYVIRSEGHHHHHH”: the “soluble on expression in E. coli” value is “soluble”.
Next, “MSAPNPKAFPLADAALTQQILDVVQQAANLRQLKKGANEATKTLNRGISEFIIMAADCEPIEILLHLPLLCEDKNVPYVFVPSRVALGRACGVSRPVIAASITTNDASAIKTQIYAVKDKIETLLI”: “soluble”; “VLAGIDALESSGFAAVAGKRIALVTNRSGVDRLGRRTIDLLAHAPGARLVAIFAPEHGLGTDVDAPFGDAIDADTNVVVHSLYGSRRRIAPEALSNVDVLVFDIQDAGVRFFTYLATLGYVLEAAAAAHVPVVVLDRPNPLGGDVVGGPVSDADIGSFTNYYPLPLAPGMTIGELAKLFDDRLRIGADLVVVPMENYRRWMRYGDTGLGGLPPSPNLRDAAALSLYPDIGLVEGADVSVGRGTATPFGVLGAPWIDGRALADDLRAMHLSATFTPARFVPTEGPYRGALCEGVRIERLPGPVRPGRIGLAVALALHRRYPDRFRIDAIRASVGSRAVADMLADGRPLDEIEQVVDTQNAAFSRERAAYLLY”: “not soluble”; “MTEVILFFFATPKRATFSLELTSMKKLATLLAGSACALSLLSGTAAAEDKELVFMNWGPYINSGILEQFTKETGIKVIYSTYESNETLYAKLKTHNQGYDLVVPSTYFVAKMRDEGMLQKIDKSKLSNFKNLDSNYLDKPYDPNNDYSIPHVVAITGLAVNTDMYDPNDFQSWGDLWKPELKGQLMLMDDTREVFHIALRKLGYSGNSTDDKQIDEAYAELQKLMPNVLVFNSDNPAAPYLSGEVGLGMLWNGSAAAAQKEGLPIKLVFPKEGGIGWVDNFAISSGAKNVDAAHKMIDFLLRPEIAEQISRDTGYLTGVKASNDKFQDVAPLFPSQEDLDRVEWQSAVGDKTVKYEEYFMKLKAGQ”: “not soluble”.
The same measure for “MAHHHHHHMQRNEVESLEGLVLLVQLRVLVAHHNAVTSLRPIAVLPALSFIDARSNKIEDVNPMEDLPCDSLKYLALLDNPCCNGDRSVDREQIMKACPKLAMLDDVPRDPSAEKVTGSEEEENSDEEDGCKRWHAVSETPTGCSKGVSSRIHLYRSLKMCEPLPVSVPSLEPIPVTSQDIDTNRVTTTTDRLCEQLRHRSSAIRRMAGHHALGQTEVSDPVWDFGNHVENDGDSEHRSNGRRRLDSPESTLSLTLPPELEQERATKARLYDDIRFALQADDRRLRQLAGVVWDDVDKVLSTRQALVGHRRHRMHTAHQQPSDAYAKSLEILKHENRVANLDKYRKQENANAPQ”: “not soluble”.
